Reference: patent US20250197487A1 (AKESO BIOPHARMA, published 2025)

Experiments:
[1] = molecular target: T1, PD-1 on the surface of 293T-PD-1 cells (UniProt Q15116 25-288, limits assumed); experiment: FACS (2nd), 293T-PD-1 cells, antibody 11 nM
T1 construct: whole, on cells
Protocol: (§1) Then PBS was used for washing, and 300 μL of PBSA was used to resuspend the cells, and fluorescence signals (MFI) were detected with FITC channel on a flow cytometer.

fusion protein PD-1-mFc [2] = molecular target: T2, fusion protein PD-1-mFc (human, UniProt Q15116 25-170); experiment: BLI (Fortebio), antibody on AHC sensor, PD-1-mFc 0.62-50 nM, 1:1 fit
T2 construct: also called human PD-1-mFc; not shown: mFc (Fc of mouse IgG)
T2 sequence (Q15116 25-170): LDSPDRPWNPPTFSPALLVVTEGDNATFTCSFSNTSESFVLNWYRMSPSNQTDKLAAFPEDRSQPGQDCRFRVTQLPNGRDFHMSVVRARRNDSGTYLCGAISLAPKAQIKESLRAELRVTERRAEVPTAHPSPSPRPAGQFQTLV
Protocol: The sample dilution buffer was PBS (0.02% Tween-20, 0.1% BSA, pH7.4). 5 μg/mL antibody was immobilized to an AHC sensor with the immobilization height being about […]. The sensor was equilibrated in a buffer for 60 s, and the antibody immobilized to the sensor bound to PD-1-mFc at a concentration of 0.62-50 nM (three-fold gradient dilution) for 120 s, and then the antigen and antibody dissociated in the buffer for 300 s. The data were analyzed by 1:1 model fitting to obtain affinity constants. The data acquisition software was Fortebio Data Acquisition 7.0, and the data analysis software was Fortebio Data Analysis 7.0.

fusion protein PD-1-mFc [3] = molecular target: T2, fusion protein PD-1-mFc; experiment: indirect ELISA, PD-1-mFc coat 0.5 µg/mL
Protocol: (§2) The microplate was coated with human PD-1-mFc and incubated overnight at 4° C. After being blocked with 1% BSA at 37° C. for 2 hours, the microplate was added with antibody, and then incubated at 37° C. for 30 minutes. […] After the microplate was washed and patted dry, TMB (Neogen, 308177) was added for color developing for 5 minutes, and then stop solution was added to terminate the color development. Then the microplate was put into a microplate reader immediately, and the OD value of each well in the microplate was read at 450 nm. SoftMax Pro 6.2.1 was used to analyze and process the data.

[4] = molecular target: T1, PD-1 on the surface of 293T-PD-1 cells; experiment: FACS (2nd), 293T-PD-1 cells, antibody 1.23 nM
Protocol: as §1

[5] = molecular target: T1, PD-1 on the surface of 293T-PD-1 cells; experiment: competitive FACS, 293T-PD-1 cells, competitor PD-L1-mFc 20 nM
Protocol: (§3) Then 500 μL of 1% PBSA was added, and the mixture was centrifuged at 5600 rpm for 5 minutes to remove the supernatant. 100 μL of FITC […] anti mouse antibody diluted at a ratio of 1:500 was then added into each tube, and the mixture was incubated on ice for 40 minutes in the absence of light after being mixed well. Then the mixture was centrifuged, washed and resuspended, and then transferred to a loading tube for testing.

[6] = molecular target: T1, PD-1 on the surface of 293T-PD-1 cells; experiment: FACS (2nd), 293T-PD-1 cells
Protocol: as §1

[7] = molecular target: T1, PD-1 on the surface of 293T-PD-1 cells; experiment: FACS, 293T-PD-1 cells, antibody 0.14 nM
Protocol: as §1

fusion protein PD-1-mFc [8] = molecular target: T2, fusion protein PD-1-mFc; experiment: indirect ELISA (2nd), PD-1-mFc coat 0.5 µg/mL
Protocol: as §2

[9] = molecular target: T1, PD-1 on the surface of 293T-PD-1 cells; experiment: FACS, 293T-PD-1 cells, antibody 3.70 nM
Protocol: as §1

[10] = molecular target: T1, PD-1 on the surface of 293T-PD-1 cells; experiment: FACS, 293T-PD-1 cells
Protocol: as §1

[11] = molecular target: T1, PD-1 on the surface of 293T-PD-1 cells; experiment: FACS, 293T-PD-1 cells, antibody 1.23 nM
Protocol: as §1

[12] = molecular target: T1, PD-1 on the surface of 293T-PD-1 cells; experiment: FACS, 293T-PD-1 cells, antibody 33.33 nM
Protocol: as §1

[13] = molecular target: T1, PD-1 on the surface of 293T-PD-1 cells; experiment: FACS (2nd), 293T-PD-1 cells, antibody 0.41 nM
Protocol: as §1

[14] = molecular target: T1, PD-1 on the surface of 293T-PD-1 cells; experiment: FACS, 293T-PD-1 cells, antibody 100 nM
Protocol: as §1

[15] = molecular target: T1, PD-1 on the surface of 293T-PD-1 cells; experiment: FACS (2nd), 293T-PD-1 cells, antibody 3.7 nM
Protocol: as §1

fusion protein PD-1-hFc = molecular target: T3, fusion protein PD-1-hFc (UniProt Q15116 25-170); experiment: competitive ELISA, PD-1-hFc coat 0.5 µg/mL, competitor PD-L1-mFc 0.3 µg/ml
T3 construct: not shown: hFc (Fc of human IgG)
T3 sequence (Q15116 25-170): as above
Protocol: The microplate was coated with PD-1-hFc and incubated overnight at 4° C. […] After incubation at 37° C. for 30 minutes, the microplate was washed and patted dry. Then enzyme-labeled secondary antibody was added, and the microplate was incubated at 37° C. for 30 minutes. After the microplate was washed and patted dry, TMB was added for color developing for 5 minutes, and then stop solution was added to terminate the color development. […] SoftMax Pro 6.2.1 was used to analyze and process the data.

[16] = molecular target: T1, PD-1 on the surface of 293T-PD-1 cells; experiment: competitive FACS (2nd), 293T-PD-1 cells, competitor PD-L1
Protocol: as §3

fusion protein PD-1-mFc [17] = molecular target: T2, fusion protein PD-1-mFc; experiment: indirect ELISA, antibody 0 (blank)
[18] = molecular target: T1, PD-1 on the surface of 293T-PD-1 cells; experiment: FACS (2nd), 293T-PD-1 cells, antibody 0.14 nM
Protocol: as §1

[19] = molecular target: T1, PD-1 on the surface of 293T-PD-1 cells; experiment: FACS (2nd), 293T-PD-1 cells, antibody 0.014 nM
Protocol: as §1

[20] = molecular target: T1, PD-1 on the surface of 293T-PD-1 cells; experiment: FACS (2nd), 293T-PD-1 cells, antibody 30 nM
Protocol: as §1

[21] = molecular target: T1, PD-1 on the surface of 293T-PD-1 cells; experiment: FACS, 293T-PD-1 cells, antibody 0.41 nM
Protocol: as §1

[22] = molecular target: T1, PD-1 on the surface of 293T-PD-1 cells; experiment: FACS, 293T-PD-1 cells, antibody 11.11 nM
Protocol: as §1

[23] = molecular target: T1, PD-1 on the surface of 293T-PD-1 cells; experiment: FACS (2nd), 293T-PD-1 cells, antibody 100 nM
Protocol: as §1

T1 sequence (Q15116 25-288 limits assumed): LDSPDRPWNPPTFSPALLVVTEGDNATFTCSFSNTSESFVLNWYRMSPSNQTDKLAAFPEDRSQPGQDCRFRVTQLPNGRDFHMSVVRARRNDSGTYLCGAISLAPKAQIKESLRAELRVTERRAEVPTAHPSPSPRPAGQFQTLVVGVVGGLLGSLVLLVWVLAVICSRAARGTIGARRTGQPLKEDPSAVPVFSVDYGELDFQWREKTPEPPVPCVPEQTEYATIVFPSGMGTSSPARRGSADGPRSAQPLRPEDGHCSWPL

MFI [1]: 868
Kd (fusion protein PD-1-mFc [2]): 0.164 nM
EC50 (fusion protein PD-1-mFc [3]): 0.037 nM
MFI [4]: 176
EC50 [5]: 4.37 nM
EC50 [6]: 3.61 nM
MFI [7]: 48.1
EC50 (fusion protein PD-1-mFc [8]): 0.045 nM
MFI [9]: 409
EC50 [10]: 2.9 nM
MFI [11]: 202
MFI [12]: 655
MFI [13]: 69.2
MFI [14]: 671
MFI [15]: 423
EC50 (fusion protein PD-1-hFc): 0.745 nM
EC50 [16]: 9.21 nM
OD 450 nm (fusion protein PD-1-mFc [17]): 0.053
MFI [18]: 29.6
MFI [19]: 7.4
MFI [20]: 831
MFI [21]: 99.7
MFI [22]: 600
MFI [23]: 814
B1: anti-PD-1 humanized antibody 14C12H1L1 (antibody, V domains shown)
VH: EVQLVESGGGLVQPGGSLRLSCAASGFAFSSYDMSWVRQAPGKGLDWVATISGGGRYTYYPDSVKGRFTISRDNSKNNLYLQMNSLRAEDTALYYCANRYGEAWFAYWGQGTLVTVSS
VL: DIQMTQSPSSMSASVGDRVTFTCRASQDINTYLSWFQQKPGKSPKTLIYRANRLVSGVPSRFSGSGSGQDYTLTISSLQPEDMATYYCLQYDEFPLTFGAGTKLELK
